Experimental findings from patent publication US12492252 (SHANDONG BOAN BIOTECHNOLOGY, dated 2025) are described below.

The chains are these.
T1: C-terminal fragment of the full length human GPC3 protein (human, UniProt P51654 359-554)
T1 construct: domain: C-terminal subunit (C-terminal fragment); also called C-terminal of GPC3; 30-kDa C-terminal subunit
T1 sequence (looked up): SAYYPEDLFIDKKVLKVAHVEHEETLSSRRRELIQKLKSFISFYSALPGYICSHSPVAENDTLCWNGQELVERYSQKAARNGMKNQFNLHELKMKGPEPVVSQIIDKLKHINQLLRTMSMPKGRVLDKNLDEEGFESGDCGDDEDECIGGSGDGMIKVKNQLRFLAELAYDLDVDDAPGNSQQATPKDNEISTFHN

B1: anti-human GPC3 IgG1 antibody clone 2 (antibody, V domains shown)
VH: CQSVEESGGRLVTPGTPLTLTCTVSGFSLSTYNMGWIRQAPGEGLEYIGTISSSTGNTYYATWAKGRFTISKTSSTTVDLKITNLTTEDTATYFCVRVNNMGDIWGPGTLVTVSL
VL: AIVMTQTPSSKSVAVGDTVTINCQASESVYKDNRLAWFQQKPGQAPKLLIYLASTLASGVPSRFKGSGSGTEFTLTISDVVCDDAATYYCGGYKDSLFDGFPFGGGTEVVVKR
B2: anti-human GPC3 IgG1 antibody clone 17 (antibody, V domains shown)
VH: CQSVEESGGRLVTPGTPLTLTCTVSGFSLSTYDMSWVRQAPGKGLEYIGWINSGGSPYYARWAKGRFTISKTSSTTVDLKMTSPTTEDTATYFCARHRSGYYGDIWGPGTLVTVSL
VL: DPVLTQTPSSVSAAVGDTVSINCQSSQNVYKNRLAWYQQKPGQPPKLLIYGASTLASGVPSRFKGSGSGTQFTLTISDLECDDAATYYCAGGYSTIVDNTFGGGTEVVVKR
B3: anti-human GPC3 IgG1 antibody clone 122 (antibody)
heavy: not shown
light: DPVLTQTPSSVSAAVGGTVTINCQSSQNVYNNNRLAWYQQKPGQPPKLLIYFASKLASGVPSRFKGNGSGTQFTLTISGVQCDDAATYYCAGGYNSIVDNGFGGGTEVVVERTVAAPSVFIFPPSDEQLKSGTASVVCLLNNFYPREAKVQWKVDNALQSGNSQESVTEQDSKDSTYSLSSTLTLSKADYEKHKVYACEVTHQGLSSPVTKSFNRGECTS
B4: anti-human GPC3 IgG1 antibody clone 182 (antibody)
heavy: not shown
light: B3 light with G104A, E111K
B5: anti-human GPC3 IgG1 antibody clone 49 (antibody, V domains shown)
VH: CQSVEESGGRLVTPGTPLTLTCTVSGFSLSTYWMTWVRQAPGKGLEWIGIINPSGSAYYASWAKGRFTISKTSSATVDLKMTSLTAADTATYFCAGGGGMDPWGPGTLVTVSS
VL: DPVLTQTPSSVSAAVGGTVSISCQSSQSIVKNYLSWFQQKPGQPPKRLIYKASTLPSGVPSRFKGSGSGTEFTLTISDLECDDAATYYCAASYSDNIYVFGGGTEVVVKR
B6: anti-human GPC3 IgG1 antibody clone 41 (antibody, V domains shown)
VH: B5 VH with P17A, S54G, T72A
VL: B5 VL with V30I, Q39H, K51R, K64E, S77N
B7: anti-human GPC3 IgG1 antibody clone 22 (antibody, V domains shown)
VH: B5 VH with S54T, S56R
VL: B5 VL with S20T, S22N, I29V, V30Y, K31S, Q39K, P56V, K64V, D95G
B8: anti-human GPC3 IgG1 antibody clone 8 (antibody, V domains shown)
VH: B5 VH with P17A, S54G
VL: B5 VL with V30I, Q39H, K51R, K64E
B9: anti-human GPC3 IgG1 antibody clone 40 (antibody, V domains shown)
VH: B5 VH with N52S, S54A, A86T
VL: B5 VL
notes: also called parental clone 40; chimeric anti-GPC3 clone 40
B10: anti-human GPC3 IgG1 antibody clone 12 (antibody, V domains shown)
VH: B5 VH with Y58F
VL: B5 VL
B11: anti-human GPC3 IgG1 antibody clone 121 (antibody, V domains shown)
VH: B5 VH with S54A, A87V
VL: B5 VL with S20T, S28N, V30I, N32D, A52T, D95G
B12: anti-human GPC3 IgG1 antibody clone 74 (antibody, V domains shown)
VH: QCQSVEESGGRLVTPGTPLTLTYTVSGFSLNNYDMSWVRQAPGKGLQYIGWINSGGTAYYASWAKGRFTISKTSSTTVDLKMTSPTTEDTATYFCARHRYGYYGDIWGPGTLVTVSL
VL: DPVLTQTPSSVSAAVGGTVTINCQSSQNVYNNNRLAWYQQKLGQPPKLLIYFASKLASGVPSRFSGSGSGTQFTLTISGVQCDDAATYYCAGGYNTIVDNGFGGGTEVVVKR
B13: anti-human GPC3 IgG1 antibody clone 5 (antibody, V domains shown)
VH: B1 VH with I37V
VL: B1 VL with A45P

Substitutions are numbered along the chain they refer to.

The term Kd denotes the concentration at which binding is half-saturated. Read a high Kd as weaker binding. For orientation: koff means the rate constant with which the complex falls apart. A low value points to slow dissociation. As a reminder, the EC50 is the concentration at which the effect is half-maximal. The low end stands for greater potency, the high end for weaker potency.

One experiment has as its target T2, full length human GPC3 His (human, UniProt P51654 25-559, limits assumed).
T2 construct: also called full length human GPC3 protein; not shown: His tag
In words: SPR (Biacore T200), full length human GPC3 His immobilised, IgG1 in solution. (In general: Surface plasmon resonance follows binding to a sensor surface in real time, without labels.)
In turn, B1 returned a Kd of roughly 0.49 nM, a RuMax of 2 and an off-rate constant (koff) of 0.00039 s⁻¹.
B2: the Kd is 0.2 nM, the RuMax is 10.7 and the koff was 0.0037 s⁻¹.
B3 had a Kd of 0.2 nM, a RuMax of 17.3 and a dissociation rate constant (koff) of 0.0018 s⁻¹.
On to B4, for which binding was characterised by a dissociation constant (Kd) of 0.02 nM, the RuMax is 24.3 and the koff is 0.0019 s⁻¹.
Molecule B5 came in with a Kd of 0.9 nM, a RuMax of 1.7 and a koff of 0.0017 s⁻¹.
For B6 the same measures were 1.3 nM, 1.49 and 0.0032 s⁻¹.
In turn, B7 came in with a Kd of 1.6 nM, a RuMax of 2.9 and a koff of 0.00052 s⁻¹.
As to B8, the Kd turned out to be 0.1 nM, the RuMax is 3.7 and the koff was 0.00042 s⁻¹.
For B9, in that order: 0.6 nM, 2.4 and 0.0018 s⁻¹.
Regarding B10, the Kd turned out to be 0.6 nM, the RuMax was 1.4 and the koff was 0.0016 s⁻¹.
B11 came in with a Kd of 0.5 nM, a RuMax of 2 and a koff of 0.0015 s⁻¹.
With B12, the Kd is 0.02 nM, the RuMax was found to be 24.3 and the koff was 0.00034 s⁻¹.

The next experiment has as its target T3, human GPC3 protein (human, UniProt P51654 25-559).
T3 construct: also called GPC3 antigen; human GPC3 proteins
In words: screening of recombinantly expressed rabbit clones (before the change to human constant regions).
Regarding B13, the binding result is recorded as “binds”.

The next experiment has as its target T1, C-terminal fragment of the full length …. Put plainly: ELISA. Background: An ELISA detects its analyte on a solid surface through an enzyme-linked reagent.
Take B13: the binding result was “binds”.

For the next experiment, the target named is T4, human GPC3 on cells (HepG2 cells expressing full length human GPC3; GPC3-transfected HEK293T cells) (human, UniProt P51654 25-554).
T4 construct: whole, on cells; also called GPC3-expressing HepG2 tumor cells
In words: flow cytometry on HepG2 cells.
As to B1, the midpoint of the response, the EC50, lay at 0.0076 nM and the “HepG2 Cell binding (Fold ratio)” value amounted to 694 fold.
Consider B2, for which the EC50 stood at 0.043 nM and the “HepG2 Cell binding (Fold ratio)” value was 39.9 fold.
Take B3: it took 0.0053 nM to reach a half-maximal effect (EC50) and the “HepG2 Cell binding (Fold ratio)” value came out at 129 fold.
On to B5, for which the EC50 came to 0.012 nM and the “HepG2 Cell binding (Fold ratio)” value was determined as 115 fold.
As to B6, a half-maximal response (EC50) required 0.014 nM and the “HepG2 Cell binding (Fold ratio)” value is 116 fold.
For B7, the midpoint of the response, the EC50, lay at 0.013 nM and the “HepG2 Cell binding (Fold ratio)” value amounted to 121 fold.
On to B8, for which the EC50 was determined as 0.012 nM and the “HepG2 Cell binding (Fold ratio)” value was determined as 79.5 fold.
Regarding B9, the EC50 was 0.013 nM and the “HepG2 Cell binding (Fold ratio)” value turned out to be 104 fold.
In the case of B10, the EC50 came to 0.014 nM and the “HepG2 Cell binding (Fold ratio)” value amounted to 125 fold.
For B11, in that order: 0.0061 nM and 74.6 fold.
B12: a half-maximal effect (EC50) was put at 0.0042 nM and the “HepG2 Cell binding (Fold ratio)” value is 143 fold.
